The source of these data is US20130216529A1 (TALIGEN THERAPEUTICS, published 2013).

Residue numbers refer to the chain shown, from its start.

The target in assay [1] is T1, recombinant human factor B (human, UniProt P00751 26-764, biotinylated (EZ-link) in the Octet assay only; sites not stated).
T1 construct: also called purified factor B protein
Briefly: BLI (ForteBio Octet), biotinylated human factor B on neutravidin sensors, Fab' at 1e-7 M. How it is done:
(§1) Binding kinetics of the Fab′ fragments were analyzed using a FortéBio® Octet® biosensor (FortéBio, Inc., Menlo Park, Calif.). Recombinant human factor B was biotinylated with the EZ-link biotinylation system (Pierce Biotechnology, Rockford, Ill.) according to the manufacturer's instructions. The antigen was then coupled to neutravidin-coated sensors (FortéBio, Inc., Menlo Park, Calif.) according to the manufacturer's instructions. Fab′ binding was then monitored in real time using bio-layer interferometry analysis and software provided by the manufacturer. Antigen binding affinities were calculated for the tested Fab′ fragments based on the measured association (“Kassoc”) and dissociation (“Kdissoc”) constants. Preferably humaneered antibodies or antibody fragments with equilibrium dissociation constants the same or […] than that of the reference antibody (i.e., mAb 1379) or antibody fragment (i.e., TA10).
(§2) Fully humaneered Fab′ fragments were isolated by colony lift binding assays and confirmed as factor B binders by ELISA. Humaneered Fab′ fragments showing strong positive signals by ELISA were purified and further characterized in comparison to the reference Fab′ fragment TA10, which has murine V-region sequences from mAb 1379. Kinetics of Fab′ fragment binding to recombinant human factor B were analyzed with the FortéBio® Octet® system by bio-layer interferometry, providing real time label-free monitoring of protein-protein interactions. Measured association (Kassoc) and dissociation (Kdissoc) constants, and calculated equilibrium dissociation constants (KD=Kdissoc/Kassoc) (i.e., binding affinity), are shown in Table 1.
In general terms: BLI is a label-free optical method that tracks binding on a fibre tip over time.

Assay [2] deals with T1, recombinant human factor B. Description: BLI (ForteBio Octet), biotinylated human factor B on neutravidin sensors, Fab' at 1e-7 M; KD = Kdissoc/Kassoc. How it is done:
as §1, §2

Assay [3] deals with T1, recombinant human factor B. Briefly: dilution ELISA, factor B coated at 25 ng/well [upper panel]. (In general: An ELISA detects its analyte on a solid surface through an enzyme-linked reagent.)
Assay [4] has as its target T1, recombinant human factor B. Description: dilution ELISA, factor B coated at 50 ng/well [upper panel].
Assay [5] has as its target T1, recombinant human factor B. Briefly: dilution ELISA, factor B coated at 25 ng/well [lower panel]. How it is done:
(§3) Next, the ability of the cloned VH and Vκ sequences to bind factor B was assayed. The cloned VH- and Vκ-regions were expressed in bacteria as Fab′ fragments, purified, and tested for binding to factor B in a dilution ELISA. FIG. 4 compares factor B binding of the cloned Fab′ TA003 to that of a Fab′ derived from mAb1379. As expected, both the cloned Fab′ and murine Fab produced binding curves that were dependent on both antibody and antigen concentration.

For assay [6], the target named is T1, recombinant human factor B. Description: dilution ELISA, factor B coated at 50 ng/well [lower panel]. How it is done: as §3
In assay [7] the target is T1, recombinant human factor B. Description: dilution ELISA, factor B coated at 100 ng/well [lower panel]. As to the method:
as §3

Usually koff stands for a measure of how fast the partners let go of each other. The term Kd denotes the equilibrium constant for the complex coming apart. By kon is commonly meant the rate constant with which the complex forms. As usually defined, the EC50 (read off the curve) is the concentration giving half of the maximal effect.

T1 sequence (P00751 26-764): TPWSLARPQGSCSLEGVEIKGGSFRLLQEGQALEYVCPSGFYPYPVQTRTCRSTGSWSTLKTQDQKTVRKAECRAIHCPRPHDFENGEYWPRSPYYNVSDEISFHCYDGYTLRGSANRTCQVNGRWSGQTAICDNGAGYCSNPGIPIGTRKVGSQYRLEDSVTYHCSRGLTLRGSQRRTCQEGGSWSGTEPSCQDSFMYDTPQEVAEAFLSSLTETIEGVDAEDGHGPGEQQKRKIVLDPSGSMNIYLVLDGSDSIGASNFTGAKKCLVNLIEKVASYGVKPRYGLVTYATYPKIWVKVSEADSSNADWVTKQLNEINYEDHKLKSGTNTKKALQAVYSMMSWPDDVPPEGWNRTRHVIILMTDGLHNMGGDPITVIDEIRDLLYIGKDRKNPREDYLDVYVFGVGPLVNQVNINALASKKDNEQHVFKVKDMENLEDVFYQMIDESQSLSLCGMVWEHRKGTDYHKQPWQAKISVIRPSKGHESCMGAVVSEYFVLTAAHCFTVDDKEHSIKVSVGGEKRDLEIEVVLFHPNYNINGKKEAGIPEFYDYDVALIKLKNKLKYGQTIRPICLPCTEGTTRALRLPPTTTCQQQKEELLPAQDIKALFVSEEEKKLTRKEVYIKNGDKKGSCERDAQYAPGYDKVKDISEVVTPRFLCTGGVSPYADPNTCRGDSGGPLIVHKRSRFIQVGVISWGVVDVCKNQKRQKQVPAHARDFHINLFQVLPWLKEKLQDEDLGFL

B1: TA103-2 Fab' (Fab, V domains shown)
VH: QVQLVQSGAEVKKPGASVKVSCKASGYSFTDYYMTWVRQAPGQGLEWMGWINPNSGGTKYAQKFQGRVTMTRDTSISTAYMELSRLRSDDTAVYYCARGYYANSAWFAYWGQGTLVTVSS
VL: DIVMTQSPDSLAVSLGERATINCKSSQSLLNSRTSKNYLAWYQQKPGQPPKLLIYWASTRESGVPDRFSGSGSGTDFTLTISSLQAEDVAVYYCKQVYNLPWTFGQGTKLEIK
notes: Humaneered Fab' expressed in E. coli
For the molecule B1, the koff in assay [1] turned out to be 0.0028 s⁻¹. The Kd in assay [2] turned out to be 3.73 nM.

B2: TA102-4 Fab' (Fab, V domains shown)
VH: B1 VH
VL: B1 VL with L29V, T34N, S35K
notes: as for B1
For B2, in assay [1], the koff is 0.00437 s⁻¹ and the kon worked out at 810000 M⁻¹ s⁻¹. In assay [2], the Kd worked out at 5.4 nM.

B3: TA101-1 Fab' (Fab, V domains shown)
VH: B1 VH
VL: B1 VL with R33S
notes: as for B1
With B3, the dissociation rate constant (koff) in assay [1] came to 0.00233 s⁻¹. Moreover, the Kd in assay [2] worked out at 4.53 nM.

B4: cloned Fab' TA003 (Fab, V domains shown)
VH: EVQLQQSGPELVKPGASVKIPCKASGYTFTDYNMDWVKQSHGKSLEWIGDINPNNGGTIYNQKFKGKATLTVDKSSSTAYMELRSLTSEDTAVYYCARGYYSNSAWFAYWGQGTLVTVSA
VL: DIVMSQSPSSLAVSAGEKVTMSCKSSQSLLNSRTRKNYLAWYQQKPGQSPKLLIYWASTRESGVPDRFTGSGSGTDFTLTISSVQAEDLAVYYCKQSYNLPWTFGGGTKLEIKR
notes: No sentence ties the name TA003 to these numbers directly; also called the cloned Fab'; purified Fab' protein (cloned V-regions from the hybridoma producing mAb 1379)
With B4, the “EC50 (read off the curve)” value in assay [3] is approximately 40 nM; in assay [4] it was approximately 20 nM.

B5: Fab' derived from mAb 1379 by papain digestion (Fab, V domains shown)
VH: B4 VH
VL: B4 VL
notes: Papain fragment of the murine IgG1 kappa hybridoma antibody mAb 1379 (ATCC PTA-6230); also called murine Fab
On to B5, for which the concentration giving a half-maximal response (EC50 (read off the curve)) in assay [5] is approximately 30 nM; in assay [6], approximately 10 nM; in assay [7], approximately 8 nM.

B6: TA10 reference Fab' (Fab, V domains shown)
VH: B4 VH with A120S
VL: DIVMSQSPSSLAVSAGEKVTMSCKSSQSLLNSRTRKNYLAWYQQKPGQSPKLLIYWASTRESGVPDRFTGSGSGTDFTLTISSVQAEDLAVYYCKQSYNLPWTFGQGTKLEIK
As for B6, in assay [1], the koff stood at 0.00296 s⁻¹. Besides, in assay [2], the Kd was determined as 6.55 nM.
